Assay [1] deals with T1, human beta-DG extracellular domain (human, UniProt Q14118 654-749, biotinylated in the Example 6 ELISA).
T1 construct: extracellular domain; Expression of the soluble human protein is not described; also called hBeta-DG; hbeta-DG
T1 sequence (looked up): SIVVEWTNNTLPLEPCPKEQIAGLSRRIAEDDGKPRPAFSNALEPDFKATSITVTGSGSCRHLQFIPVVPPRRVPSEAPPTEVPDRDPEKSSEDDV
Briefly: SPR (Biacore), mAb immobilized, hBeta-DG in flow. (In SPR one partner is held on a chip, and binding of the other changes the refractive index at the surface.)

Assay [2] addresses T2, murine laminin G-like 5 domain (mLG-5) (mouse, UniProt Q60675 2932-3118, biotinylated (Avi tag) ; Biotinylated at the Avi tag (soluble biotinylated protein); the tag is left out of the letters.).
T2 construct: Soluble protein from Expi293F cells; also called murine LG-5
T2 sequence: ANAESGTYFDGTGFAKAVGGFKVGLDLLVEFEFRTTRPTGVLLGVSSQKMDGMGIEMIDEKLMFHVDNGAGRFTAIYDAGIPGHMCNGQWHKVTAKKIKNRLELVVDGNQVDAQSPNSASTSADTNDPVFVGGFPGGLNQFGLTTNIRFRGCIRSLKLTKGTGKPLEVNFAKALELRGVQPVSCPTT
Briefly: SPR (Biacore), mAb immobilized, mLG-5 in flow.

Assay [3] deals with T3, murine beta-DG extracellular domain (mbeta-DG ECD) (mouse, UniProt Q62165 652-746).
T3 construct: range 652-746; Made in E. coli; also called mbeta-DG-HPC4; m βDG; not shown: C-terminal HPC4 tag
T3 sequence (looked up): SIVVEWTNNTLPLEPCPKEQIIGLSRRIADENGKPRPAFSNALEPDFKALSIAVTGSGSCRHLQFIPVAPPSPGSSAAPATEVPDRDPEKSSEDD
Briefly: SPR (Biacore), mAb immobilized, mBeta-DG in flow.

In assay [4] the target is T4, Fabrazyme (agalsidase beta, Genzyme) (UniProt P06280 32-429).
T4 construct: Negative control in the dot blots
T4 sequence (looked up): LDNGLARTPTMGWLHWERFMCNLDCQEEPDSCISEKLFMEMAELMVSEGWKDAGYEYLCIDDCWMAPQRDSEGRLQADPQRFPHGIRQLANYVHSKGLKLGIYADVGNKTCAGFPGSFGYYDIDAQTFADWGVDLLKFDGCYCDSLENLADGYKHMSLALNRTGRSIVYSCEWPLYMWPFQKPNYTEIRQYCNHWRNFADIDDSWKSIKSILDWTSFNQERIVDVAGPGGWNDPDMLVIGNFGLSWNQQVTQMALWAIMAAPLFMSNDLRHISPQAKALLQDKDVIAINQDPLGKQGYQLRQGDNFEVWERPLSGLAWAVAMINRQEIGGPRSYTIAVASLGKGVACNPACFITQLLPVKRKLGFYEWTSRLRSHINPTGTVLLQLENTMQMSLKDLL
Briefly: dot blot.

In assay [5] the target is T1, human beta-DG extracellular domain. Briefly: SPR (Biacore T100), antibody captured on Protein G chip, BDG in flow, 1:1 model.

Where a chain is given by its changes, count along the chain named.

B1: anti-beta-DG antibody phage display clone B04 (antibody, V domains shown)
VH: QVQLQQSGGGLVQPGGSLRLSCAASGFTFSSYAMSWVRQAPGKGLEWVSAISGSGGSTYYADSVKGRFTVSRDNSKNTLYLQMNSLRAEDTAVYYCARLGYCSSTSCYLSAFDIWGQGTMVTVSS
VL: EIVLTQSPSTLSASVGDRVTITCRASQSISSWLAWYQQKPGKAPKLLIYDASSLESGVPSRFSGSGSGTEFTLTISSLQPDDFATYYCQQYNSYPLTFGGGTKVEIK
notes: Phage display clone
One may read the Kd as the free concentration of one partner at which half of the binding sites on the other are occupied at equilibrium, for simple one-to-one binding. Higher therefore signals a looser complex. With B1, in assay [1], binding was characterised by a dissociation constant (Kd) of 2.57 nM.

B2: anti-laminin-2 antibody derived from hybridoma clone C3 (antibody, V domains shown)
VH: DVMLVESGGDLVKPGGSLKLSCAASGFTFSSYTMSWVRQTPEKRLEWVASISSGGGNTYYPDSVKGRFTISRDNAKNNLYLQMSSLRSEDTALYYCARFDYGSSLDSWGQGTTLTVSS
VL: DIVLTQSPATLSVTPGDSVSLSCRASQSISNNLHWYQQKSHESPRLLIKYASQSISGIPSRFSGSGSGTDFTLSINSVETEDFGMYFCQQSKNWPRTFGGGTKLEIK
notes: Hybridoma-derived monoclonal antibody detected with anti-mouse IgG; Chimeric human IgG1/kappa versions were also made; also called C03; anti-laminin-2(C3)
As to B2, the Kd in assay [2] worked out at 8.27 nM.

B3: anti-beta-DG antibody derived from phage display clone B06 (antibody, V domains shown)
VH: QIQLVQSGAEVKKPGKSLKIACKGSGYSFSNYWIGWVRQMPGKGLEWMGIIYPGDSDTRYSPSFHGQVTISADKSISTAYLQWSSLKASDTAMYYCARGVIINGTTSGFDYWGQGTLVIVSS
VL: ETTLTQSPATLSVSPGERATLSCRASQSVSSNLAWYQQKPGQAPRLLMYGASTRATGIPARFSGSGSGTEFTLTISSLQSEDFAVYYCQHYNNLPLTFGGGTKVDLK
notes: Phage display clone; also called B6
For orientation: koff means a measure of how fast the partners let go of each other. For orientation: kon means a measure of how fast the partners come together. A higher kon goes with fast association. In assay [1], B3 showed a Kd of 2.36 nM, a koff of 0.00216 s⁻¹ and a kon of 968000 M⁻¹ s⁻¹. Moreover, in assay [3], the Kd amounted to 162 nM, the koff stood at 0.00232 s⁻¹ and the kon turned out to be 14300 M⁻¹ s⁻¹.

B4: anti-beta-DG antibody derived from hybridoma clone AS30 (antibody, V domains shown)
VH: QIQLQQSGPELVKPGASVKMSCEASGFTFTDSVITWVKQRPGQGLEWIGEIYPGSGNFYYNEKFKGKATLTADKSSNTAYMQLRSLTSEDSAVYFCAMRRSSWGQGTLVTVSA
VL: DVLMTQTPLSLPVSLGDQASISCRSSQTIVHSNSKTYLEWYLQKPGQSPKLLIYKVSNRFSGVPDRFSGSGSGTDFTLKISRVEAEDLGVYYCFQGSHVPLTFGAGTKLELK
notes: detected with anti-mouse IgG
Turning to B4, the binding result in assay [4] is given as “no binding”. In assay [1], this molecule showed a Kd of 1.08 nM, a koff of 0.000963 s⁻¹ and a kon of 890000 M⁻¹ s⁻¹. In addition, in assay [3], the Kd came to 1.48 nM, the koff stood at 0.00113 s⁻¹ and the kon came out at 773000 M⁻¹ s⁻¹.

B5: anti-beta-DG antibody derived from hybridoma clone AS19 (antibody, V domains shown)
VH: B4 VH with I2V, E23K, T35S, P41T, N57S, F58I, S102Y
VL: B4 VL with T28S, S34G, K35N
notes: Hybridoma-derived monoclonal antibody detected with anti-mouse IgG; also called parental anti-beta-DG (clone AS19)
B5: the binding result in assay [4] is given as “no binding”.

B6: triAb 3407 (bispecific antibody, human IgG1, kappa)
light 1: EIVLTQSPDFLSVTPKEKVTLTCRASQSISNNLHWYQQKSDQSPKLLIKYASQSISGIPSRFSGSGSGTDFTLTINSVEAEDAATYFCQQSKSWPRTFGGGTKLEIKDKTHTEIVLTQSPDFLSVTPKEKVTLTCRASQSISNNLHWYQQKSDQSPKLLIKYASQSISGIPSRFSGSGSGTDFTLTINSVEAEDAATYFCQQSKSWPRTFGGGTKLEIKDKTHTRTVAAPSVFIFPPSDEQLKSGTASVVCLLNNFYPREAKVQWKVDNALQSGNSQESVTEQDSKDSTYSLSSTLTLSKADYEKHKVYACEVTHQGLSSPVTKSFNRGEC
heavy 1: EVQLVESGGGLVKPGGSLRLSCAASGFTFSSYTMSWVRQAPGKGLEWVASISSSGSNTYYPDSVKGRFTISRDNAKNNLYLQMNSLRAEDTALYYCARFDYGSSLDSWGQGTLLTVSSDKTHTEVQLVESGGGLVKPGGSLRLSCAASGFTFSSYTMSWVRQAPGKGLEWVASISSSGSNTYYPDSVKGRFTISRDNAKNNLYLQMNSLRAEDTALYYCARFDYGSSLDSWGQGTLLTVSSDKTHTASTKGPSVFPLAPSSKSTSGGTAALGCLVKDYFPEPVTVSWNSGALTSGVHTFPAVLQSSGSLSSVVTVPSSSLGTQTYICNVNHKPSNTKVDKKVEPKSCDKTHTCPPCPAPELLGGPSVFLFPPKPKDTLYITREPEVTCVVVDVSHEDPEVKFNWYVDGVEVHNAKTKPREEQYNNASRVVSVLTVLHQDWLNGKEYKCKVSNKALPAPIEKTISKAKGQPREPQVYTLPPCRDELTKNQVSLWCLVKGFYPSDIAVEWESNGQPENNYKTTPPVLDSDGSFFKKLTVDKSRWQQGNVFSCSVMHEALHNHYTQKSLSLSPG
heavy 2: QVQLVQSGAEVVKPGSSVKVSCEASGFTFTDSVITWVRQRPGQGLEWIGEIYPGSGNFYYNEKFQGRVTITADKSTSTAYMELSSLRSEDTAVYFCAMRRSSWGQGTLVTVSSASTKGPSVFPLAPSSKSTSGGTAALGCLVKDYFPEPVTVSWNSGALTSGVHTFPAVLQSSGSLSSVVTVPSSSLGTQTYICNVNHKPSNTKVDKKVEPKSCDKTHTCPPCPAPELLGGPSVFLFPPKPKDTLYITREPEVTCVVVDVSHEDPEVKFNWYVDGVEVHNAKTKPREEQYNNASRVVSVLTVLHQDWLNGKEYKCKVSNKALPAPIEKTISKAKGQPREPQVCTLPPSRDELTKNQVSLSCAVKGFYPSDIAVEWESNGQPENNYKTTPPVLDSDGSFFLVSKLTVDKSRWQQGNVFSCSVMHEALHNRFTQKSLSLSPG
light 2: DVVMTQTPLSLSVTPGQPASISCKSSQTIVHSNSKTYLEWYLQKPGQSPQLLIYKVSSRFSGVPDRFSGSGSGTDFTLKISRVEAEDVGVYYCFQGSHVPLTFGQGTKLEIKRTVAAPSVFIFPPSDEQLKSGTASVVCLLNNFYPREAKVQWKVDNALQSGNSQESVTEQDSKDSTYSLSSTLTLSKADYEKHKVYACEVTHQGLSSPVTKSFNRGEC
notes: Constant regions with knob-in-hole, NNAS, YTE and RF variants
For the molecule B6, in assay [5], the affinity, expressed as Kd, was 2.08 nM; the koff amounted to 0.00326 s⁻¹; the kon stood at 1.57e+06 M⁻¹ s⁻¹.

B7: triAb 3429 (bispecific antibody, human IgG1, kappa)
light 1: B6 light 1 with K16G, N32Y, I58V, N76S, A83F, S142G
heavy 1: B6 heavy 1 with K136Q, S173T, S179D, A198S, N201T, N207S, L236T
heavy 2: B6 heavy 2
light 2: B6 light 2
Regarding B7, in assay [5], the equilibrium dissociation constant (Kd) stood at 1.9 nM, the koff amounted to 0.00404 s⁻¹ and the kon amounted to 2.13e+06 M⁻¹ s⁻¹.

B8: triAb 3437 (bispecific antibody, human IgG1, kappa)
light 1: B6 light 1 with S30G, T134S, N144Y, T186S
heavy 1: B6 heavy 1
heavy 2: B6 heavy 2
light 2: B6 light 2
In assay [5], B8 registered a Kd of 1.87 nM, a koff of 0.0045 s⁻¹ and a kon of 2.41e+06 M⁻¹ s⁻¹.

B9: triAb 3439 (bispecific antibody, human IgG1, kappa)
light 1: B6 light 1 with K128G, N144Y, I170V, N188S, A195F
heavy 1: B6 heavy 1 with K13Q, S50T, S56D, A75S, N78T, N84S, L113T
heavy 2: B6 heavy 2
light 2: B6 light 2
B9: in assay [5], the affinity, expressed as Kd, was 1.3 nM; the koff was 0.004 s⁻¹; the on-rate (kon) worked out at 3.07e+06 M⁻¹ s⁻¹.

B10: triAb 3423 (bispecific antibody, human IgG1, kappa)
light 1: B6 light 1 with T22S, N32Y, T74S
heavy 1: B6 heavy 1
heavy 2: B6 heavy 2
light 2: B6 light 2
Take B10: in assay [5], the Kd turned out to be 1.6 nM, the koff is 0.00433 s⁻¹ and the kon worked out at 2.7e+06 M⁻¹ s⁻¹.

Source of the values: patent EP4659808A2 (Sanofi, dated 2025).
